This is an account of results in patent US20020132350.

This data set addresses MuA transposase (Bacteriophage Mu) (UniProt P07636). The experiment in a line: cell_activity.

Chain of MuA transposase (Bacteriophage Mu) (P07636 whole entry): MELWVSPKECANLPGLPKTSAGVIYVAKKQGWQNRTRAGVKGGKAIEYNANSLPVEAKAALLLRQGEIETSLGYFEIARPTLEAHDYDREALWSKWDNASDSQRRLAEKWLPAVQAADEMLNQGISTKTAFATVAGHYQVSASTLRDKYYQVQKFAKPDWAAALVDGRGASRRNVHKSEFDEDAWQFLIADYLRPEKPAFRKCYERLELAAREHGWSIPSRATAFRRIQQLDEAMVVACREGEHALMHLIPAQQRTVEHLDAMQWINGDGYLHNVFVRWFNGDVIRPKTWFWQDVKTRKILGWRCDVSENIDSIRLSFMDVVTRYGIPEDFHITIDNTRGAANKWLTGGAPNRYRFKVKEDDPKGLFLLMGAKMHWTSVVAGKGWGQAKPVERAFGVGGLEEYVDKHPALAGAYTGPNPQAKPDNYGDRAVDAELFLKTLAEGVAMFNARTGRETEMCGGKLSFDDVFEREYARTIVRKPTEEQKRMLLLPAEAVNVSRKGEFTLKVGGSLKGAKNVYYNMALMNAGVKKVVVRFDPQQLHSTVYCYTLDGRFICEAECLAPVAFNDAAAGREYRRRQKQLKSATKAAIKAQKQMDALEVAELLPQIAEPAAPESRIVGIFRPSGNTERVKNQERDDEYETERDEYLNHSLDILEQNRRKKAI

For “PC-4 fragment with lacZ-100 navigator via biotin/streptavidin”, where the note is “biotin/streptavidin bridge, induced MuA, uninduced 0”, the activity came to 58 colonies.

Substance “PC-4 SpeI/BglII fragment with attached lacZ-100 ssDNA navigator” showed an activity (same conditions, 26 blue, 5 white) of 31 colonies.

Regarding “PC-4 SpeI/BglII fragment (precleaved mini-Mu, inverted R1-R2-R3 ends flanking CAM)”, the activity (induced MuA (0.5 mM IPTG), replicate 204, uninduced 1 and 3) is 240 colonies; the activity (preformed CDC (25 mM HEPES pH 7.6, 130 mM NaCl, 10 mM MgCl2, 15% DMSO, 15% glycerol, 30 C 1 h) electroporated into E. coli, 16 blue, 4 white, fragment without …) was found to be 20 colonies.
